# The supplement of paper PMC5998384
# Tests used:
# HeLa Kyoto [1] = experiment: solubility in G1/S (NP-40 vs SDS abundance) (log2 ratio); higher = more soluble; settings: cell cycle stage: G1/S
# HeLa Kyoto [2] = experiment: solubility change mitosis vs G1/S (difference of NP-40 vs SDS log2 ratios) (log2 ratio difference); higher = more soluble in mitosis
# 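Throughout, for solubility change mitosis vs G1/S (difference of NP-40 vs SDS log2 ratios): synchronized HeLa Kyoto cells (double thymidine block for G1/S, nocodazole release for mitosis), protein amounts in NP-40 versus SDS lysates quantified by mass spectrometry, three biological replicates.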
# 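Throughout, for solubility in G1/S (NP-40 vs SDS abundance): HeLa Kyoto cells arrested at G1/S by double thymidine block, proteins quantified by TMT10plex mass spectrometry in mild NP-40 versus SDS extracts, three biological replicates.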
Substance,solubility in G1/S (log2) (HeLa Kyoto [1]),solubility change mitosis (log2) (HeLa Kyoto [2])
MTSPSPRIQIISTDSAVASPQRIQIVTDQQTGQKIQIVTAVDASGSPKQQFILTSPDGAGTGKVILASPETSSAKQLIFTTSDNLVPGRIQIVTDSASVERLLGKTDVQRPQVVEYCVVCGDKASGRHYGAVSCEGCKGFFKRSVRKNLTYSCRSNQDCIINKHHRNRCQFCRLKKCLEMGMKMESVQSERKPFDVQREKPSNCAASTEKIYIRKDLRSPLIATPTFVADKDGARQTGLLDPGMLVNIQQPLIREDGTVLLATDSKAETSQGALGTLANVVTSLANLSESLNNGDTSEIQPEDQSASEITRAFDTLAKALNTTDSSSSPSLADGIDTSGGGSIHVISRDQSTPIIEVEGPLLSDTHVTFKLTMPSPMPEYLNVHYICESASRLLFLSMHWARSIPAFQALGQDCNTSLVRACWNELFTLGLAQCAQVMSLSTILAAIVNHLQNSIQEDKLSGDRIKQVMEHIWKLQEFCNSMAKLDIDGYEYAYLKAIVLFSPDHPGLTSTSQIEKFQEKAQMELQDYVQKTYSEDTYRLARILVRLPALRLMSSNITEELFFTGLIGNVSIDSIIPYILKMETAEYNGQITGASL [NR2C2],-0.109,0.0297
MSYVFVNDSSQTNVPLLQACIDGDFNYSKRLLESGFDPNIRDSRGRTGLHLAAARGNVDICQLLHKFGADLLATDYQGNTALHLCGHVDTIQFLVSNGLKIDICNHQGATPLVLAKRRGVNKDVIRLLESLEEQEVKGFNRGTHSKLETMQTAESESAMESHSLLNPNLQQGEGVLSSFRTTWQEFVEDLGFWRVLLLIFVIALLSLGIAYYVSGVLPFVENQPELVH [ANKRD46],0.237,0.136
ARAP3,0.016,-0.158
MKEMSANTVLDSQRQQKHYGITSPISLASPKEIDHIYTQKLIDAMKPFGVFEDEEELNHRLVVLGKLNNLVKEWISDVSESKNLPPSVVATVGGKIFTFGSYRLGVHTKGADIDALCVAPRHVERSDFFQSFFEKLKHQDGIRNLRAVEDAFVPVIKFEFDGIEIDLVFARLAIQTISDNLDLRDDSRLRSLDIRCIRSLNGCRVTDEILHLVPNKETFRLTLRAVKLWAKRRGIYSNMLGFLGGVSWAMLVARTCQLYPNAAASTLVHKFFLVFSKWEWPNPVLLKQPEESNLNLPVWDPRVNPSDRYHLMPIITPAYPQQNSTYNVSTSTRTVMVEEFKQGLAVTDEILQGKSDWSKLLEPPNFFQKYRHYIVLTASASTEENHLEWVGLVESKIRVLVGNLERNEFITLAHVNPQSFPGNKEHHKDNNYVSMWFLGIIFRRVENAESVNIDLTYDIQSFTDTVYRQANNINMLKEGMKIEATHVKKKQLHHYLPAEILQKKKKQSLSDVNRSSGGLQSKRLSLDSSCLDSSRDTDNGTPFNSPASKSDSPSVGETERNSAEPAAVIVEKPLSVPPAQGLSIPVIGAKVDSTVKTVSPPTVCTIPTVVGRNVIPRITTPHNPAQGQPHLNGMSNITKTVTPKRSHSPSIDGTPKRLKDVEKFIRLESTFKDPRTAEERKRKSVDAIGGESMPIPTIDTSRKKRLPSKELPDSSSPVPANNIRVIKNSIRLTLNR [PAPOLG],-0.0339,-0.0762
TNRC18,0.0268,-0.234
MASGDLYEVERIVDKRKNKKGKWEYLIRWKGYGSTEDTWEPEHHLLHCEEFIDEFNGLHMSKDKRIKSGKQSSTSKLLRDSRGPSVEKLSHRPSDPGKSKGTSHKRKRINPPLAKPKKGYSGKPSSGGDRATKTVSYRTTPSGLQIMPLKKSQNGMENGDAGSEKDERHFGNGSHQPGLDLNDHVGEQDMGECDVNHATLAENGLGSALTNGGLNLHSPVKRKLEAEKDYVFDKRLRYSVRQNESNCRFRDIVVRKEEGFTHILLSSQTSDNNALTPEIMKEVRRALCNAATDDSKLLLLSAVGSVFCSGLDYSYLIGRLSSDRRKESTRIAEAIRDFVKAFIQFKKPIVVAINGPALGLGASILPLCDIVWASEKAWFQTPYATIRLTPAGCSSYTFPQILGVALANEMLFCGRKLTAQEACSRGLVSQVFWPTTFSQEVMLRVKEMASCSAVVLEESKCLVRSFLKSVLEDVNEKECLMLKQLWSSSKGLDSLFSYLQDKIYEV [CDYL2],-1.07,0.436
